Laboratory results from article PMC3681702.
Where two headings read alike, the source gives them in different places.

Tests used:
[1] = molecular target: p75 G247C mutant tagged with mEGFP (human) (UniProt P08138); assay: non-reducing SDS-PAGE of immunoprecipitated protein
[2] = molecular target: p75 G247C/Δ250 mutant tagged with mEGFP (human); assay: as above
[3] = molecular target: p75 Δ193/C257A/G266I mutant tagged with mEGFP (human); assay: number and brightness
[4] = molecular target: p75 C257A/G266I mutant tagged with mEGFP (human) (UniProt P08138); assay: non-reducing SDS-PAGE of immunoprecipitated protein
[5] = molecular target: wild-type neurotrophin receptor p75 tagged with mEGFP (p75-EGFP) (human) (UniProt P08138); assay: number and brightness
[6] = molecular target: wild-type neurotrophin receptor p75 tagged with mEGFP (p75-EGFP) (human) (UniProt P08138); assay: photon-counting histogram
[7] = molecular target: wild-type neurotrophin receptor p75 tagged with mEGFP (p75-EGFP) (human) (UniProt P08138); assay: non-reducing SDS-PAGE of immunoprecipitated protein
[8] = molecular target: wild-type neurotrophin receptor p75 tagged with mEGFP (p75-EGFP) (human) (UniProt P08138); assay: as above; remark: listed apart in the source

Question: How did the percent recovered as dimer [1] turn out when “p75 G247C mutant tagged with mEGFP (from UniProt P08138 29-427) (receptor)” was run?
Answer: The percent recovered as dimer was 29%.

Question: For “p75 G247C/Δ250 mutant tagged with mEGFP (receptor)”, which percent recovered as dimer [2] is on record?
Answer: Its percent recovered as dimer is 56%.

Question: “p75 Δ193/C257A/G266I mutant tagged with mEGFP (receptor)” was tested. Which stoichiometry N (molecules per oligomer) [3] did it give?
Answer: Its stoichiometry N (molecules per oligomer) is 2.9.

Question: For “p75 C257A/G266I mutant tagged with mEGFP (from UniProt P08138 29-427) (receptor)”, which percent recovered as dimer [4] is on record?
Answer: Its percent recovered as dimer is 0.8%.

Question: Which average brightness normalised to EGFP, center of the TGN [5] does the source give for “wild-type neurotrophin receptor p75 tagged with mEGFP (p75-EGFP) (from UniProt P08138 29-427)” here?
Answer: Its average brightness normalised to EGFP, center of the TGN is 6.9 x EGFP.

Question: What about the average brightness normalised to EGFP, periphery of the TGN [5] of the same substance?
Answer: Its average brightness normalised to EGFP, periphery of the TGN is 10.4 x EGFP.

Question: And the stoichiometry N (molecules per oligomer) [5]?
Answer: Its stoichiometry N (molecules per oligomer) is 8.8.

Question: And the median brightness normalised to EGFP [6]?
Answer: Its median brightness normalised to EGFP is 1.71 x EGFP.

Question: What about the stoichiometry N [6] of the same substance?
Answer: Its stoichiometry N is 3.

Question: What about the stoichiometry N (EGFP molecules per complex) [6] of the same substance?
Answer: Its stoichiometry N (EGFP molecules per complex) is 1 to 5.

Question: And the percent recovered as dimer [7]?
Answer: The percent recovered as dimer was 6.9%.

Question: And the percent recovered as dimer [8]?
Answer: Its percent recovered as dimer is 5.8%.
